Laboratory results from US20200360437A1.

Target: NKG2D ligand MIC-A and MIC-B molecules on tumor cells
Assay: cell-based or functional assay

Substance: fusion protein NKG2D-CD8αhinge-CD8TM-4-1BB-CD3ζ (chimeric antigen receptor expressed on NK-92 cells)
- specific lysis activity (CCK-8), A549 cells, effector:target 0.5:1: 21%
- specific lysis activity (CCK-8), A549 cells, effector:target 1:1: 30%
- specific lysis activity (CCK-8), H1299 cells, effector:target 0.5:1: 39%
- specific lysis activity (CCK-8), H1299 cells, effector:target 1:1: 80%
- specific lysis activity (CCK-8), MCF-7 cells, effector:target 0.5:1: 43%
- specific lysis activity (CCK-8), MCF-7 cells, effector:target 1:1: 56%
- specific lysis activity (CCK-8), MDMB-231 cells, effector:target 0.5:1: 7%
- specific lysis activity (CCK-8), MDMB-231 cells, effector:target 1:1: 14%
- specific lysis activity (CCK-8), SW-480 cells, effector:target 0.5:1: 8%
- specific lysis activity (CCK-8), SW-480 cells, effector:target 1:1: 16%
